Experimental data: IntAct's records for PubMed 19368893

B1: ADP-ribosylation factor-like protein 2-binding protein (Homo sapiens), Q9Y2Y0 (parent)
chain: MDALEGESFALSFSSASDAEFDAVVGYLEDIIMDDEFQLLQRNFMDKYYLEFEDTEENKLIYTPIFNEYISLVEKYIEEQLLQRIPEFNMAAFTTTLQHHKDEVAGDIFDMLLTFTDFLAFKEMFLDYRAEKEGRGLDLSSGLVVTSLCKSSSLPASQNNLRH

Variants of: B1
Settings: with arl2_human ARL2, P36404
arl2_human ARL2, P36404, sequence (P36404 whole entry): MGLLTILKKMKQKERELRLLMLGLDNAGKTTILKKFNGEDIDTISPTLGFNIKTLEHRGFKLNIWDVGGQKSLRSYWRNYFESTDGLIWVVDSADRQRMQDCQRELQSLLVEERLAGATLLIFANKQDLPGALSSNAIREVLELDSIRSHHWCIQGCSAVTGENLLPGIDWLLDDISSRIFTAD

Effect of a mutation on the interaction, decreasing interaction:
MDALEGESFALSFSSASDAEFDAVVGYLEDIIMDDEFQLLQRNFMDKYYLEFEDTAENKLIYTPIFNEYISLVEKYIEEQLLQRIPEFNMAAFTTTLQHHKDEVAGDIFDMLLTFTDFLAFKEMFLDYRAEKEGRGLDLSSGLVVTSLCKSSSLPASQNNLRH
MDALEGESFALSFSSASDAEFDAVVGYLEDIIMDDEFQLLQRNFMDKYYLEFEDTEENKLIYTPIFNEYISLVAKYIEEQLLQRIPEFNMAAFTTTLQHHKDEVAGDIFDMLLTFTDFLAFKEMFLDYRAEKEGRGLDLSSGLVVTSLCKSSSLPASQNNLRH
MDALEGESFALSFSSASDAEFDAVVGYLEDIIMDDEFQLLQRNFMDKYYLEFEDTEANKLIYTPIFNEYISLVEKYIEEQLLQRIPEFNMAAFTTTLQHHKDEVAGDIFDMLLTFTDFLAFKEMFLDYRAEKEGRGLDLSSGLVVTSLCKSSSLPASQNNLRH
MDALEGESFALSFSSASDAEFDAVVGYLEDIIMDDEFQLLQRNFMDKYYLEFEDTEENKLIYTPIFNEYISLVEKYIEEQLLQRIPEFNMAAFTTTLQHHKDEVAGDIFDMLLTATDFLAFKEMFLDYRAEKEGRGLDLSSGLVVTSLCKSSSLPASQNNLRH
MDALEGESFALSFSSASDAEFDAVVGYLEDIIMDDEFQLLQRNFMDKYYLEFEDTEENKLIYTPIFNEYISLVEKYIEEQLLQRIPEFNMAAFTTTLQHHKDEVAGDIFDMALTFTDFLAFKEMFLDYRAEKEGRGLDLSSGLVVTSLCKSSSLPASQNNLRH
MDALEGESFALSFSSASDAEFDAVVGYLEDIIMDDEFQLLQRNFMDKYYLEFEDTEENKLIYTPIFNEYISLVEKYIEEQLLQRIPEFNMAAFTTTLQHHKDEVAGDIFAMLLTFTDFLAFKEMFLDYRAEKEGRGLDLSSGLVVTSLCKSSSLPASQNNLRH
MDALEGESFALSFSSASDAEFDAVVGYLEDIIMDDEFQLLQRNFMDKYYLEFEDTEENKLIYTPIFNEYISLVEKYIEEQLLQRIPEFNMAAFTTTLQHHKDEVAGDIADMLLTFTDFLAFKEMFLDYRAEKEGRGLDLSSGLVVTSLCKSSSLPASQNNLRH
MDALEGESFALSFSSASDAEFDAVVGYLEDIIMDDEFQLLQRNFMDKYYLEFEDTEENKAIYTPIFNEYISLVEKYIEEQLLQRIPEFNMAAFTTTLQHHKDEVAGDIFDMLLTFTDFLAFKEMFLDYRAEKEGRGLDLSSGLVVTSLCKSSSLPASQNNLRH
